{"source": "patent US20020115592A1", "about": "“Pharmaceutical compositions containing insulin” (Provalis UK Limited, priority 1998, published 2002)", "key": {"[1]": {"test": "Dissolution of insulin (optionally with aprotinin) in non-aqueous hydrophilic solvent/cosolvent", "type": "physicochemical", "settings": "Insulin 7 mg"}, "[2]": {"test": "Appearance on addition of Akoline to the insulin solution", "type": "physicochemical", "settings": "Insulin 7 mg"}, "[3]": {"settings": "Gly (20 μl), PEG/L-lactic (20 μl/10 mg)"}, "[4]": {"settings": "Gly (20 μl), PEG/NaAc (20 μl/10 mg)"}, "[5]": {"settings": "Gly (40 μl), Acetic acid (10 mg)"}, "[6]": {"settings": "Gly (40 μl), L-lactic acid (10 mg)"}, "[7]": {"settings": "PD (40 μl), Na-L lactate (10 mg)"}, "[8]": {"settings": "PEG (25 μl), DL-lactic acid (25 μl)"}, "[9]": {"settings": "PEG (50 μl), Glycerol/TEA (50 μl/10 gl)"}, "[10]": {"settings": "PG (40 μl), Acetic acid (10 mg)"}, "[11]": {"settings": "PG (40 μl), Caproic acid (10 mg)"}, "[12]": {"settings": "PG (40 μl), Citric acid (10 mg)"}}, "data": [{"substance": "Insulin", "values": [{"measurement": "Soluble?", "setting": "[1]; [3]", "result": "Yes"}, {"measurement": "Soluble?", "setting": "[1]; [4]", "result": "Yes"}, {"measurement": "Soluble?", "setting": "[1]; [5]", "result": "Yes"}, {"measurement": "Soluble?", "setting": "[1]; [6]", "result": "Yes"}, {"measurement": "Soluble?", "setting": "[1]; Gly (40 μl), NaAc (10 mg)", "result": "Yes"}, {"measurement": "Soluble?", "setting": "[1]; PD (20 μl), benz. SO3H (10 mg)", "result": "Yes"}, {"measurement": "Soluble?", "setting": "[1]; PD (40 μl), L-lactic (10 mg)", "result": "Yes"}, {"measurement": "Soluble?", "setting": "[1]; [7]", "result": "Yes"}, {"measurement": "Soluble?", "setting": "[1]; PD (40 μl), NaAc (10 mg)", "result": "Yes"}, {"measurement": "Soluble?", "setting": "[1]; PEG (20 μl), L-lactic (10 mg)", "result": "Yes"}, {"measurement": "Soluble?", "setting": "[1]; PEG (20 μl), NaAc (10 mg)", "result": "Yes"}, {"measurement": "Soluble?", "setting": "[1]; [8]", "result": "Yes"}, {"measurement": "Soluble?", "setting": "[1]; PEG (25 μl), DL-lactic acid (25 μl), listed as with Akoline/POE", "result": "Yes"}, {"measurement": "Soluble?", "setting": "[1]; PEG (40 μl), camitine (10 mg)", "result": "Yes"}, {"measurement": "Soluble?", "setting": "[1]; [9]", "result": "Yes"}, {"measurement": "Soluble?", "setting": "[1]; [10]", "result": "Yes"}, {"measurement": "Soluble?", "setting": "[1]; [11]", "result": "Yes"}, {"measurement": "Soluble?", "setting": "[1]; [12]", "result": "Yes"}, {"measurement": "Addition of Akoline", "setting": "[2]; [3]", "result": "Turbid"}, {"measurement": "Addition of Akoline", "setting": "[2]; [4]", "result": "Clear"}, {"measurement": "Addition of Akoline", "setting": "[2]; [5]", "result": "Opaque"}, {"measurement": "Addition of Akoline", "setting": "[2]; [6]", "result": "Turbid"}, {"measurement": "Addition of Akoline", "setting": "[2]; Gly (40 μl), NaAc (10 mg)", "result": "Translucent"}, {"measurement": "Addition of Akoline", "setting": "[2]; PD (20 μl), benz. SO3H (10 mg)", "result": "Clear"}, {"measurement": "Addition of Akoline", "setting": "[2]; PD (40 μl), L-lactic (10 mg)", "result": "Turbid"}, {"measurement": "Addition of Akoline", "setting": "[2]; [7]", "result": "Clear"}, {"measurement": "Addition of Akoline", "setting": "[2]; PD (40 μl), NaAc (10 mg)", "result": "Clear"}, {"measurement": "Addition of Akoline", "setting": "[2]; PEG (20 μl), L-lactic (10 mg)", "result": "Translucent"}, {"measurement": "Addition of Akoline", "setting": "[2]; PEG (20 μl), NaAc (10 mg)", "result": "Clear"}, {"measurement": "Addition of Akoline", "setting": "[2]; [8]", "result": "Cloudy"}, {"measurement": "Addition of Akoline", "setting": "[2]; PEG (25 μl), DL-lactic acid (25 μl), (Akoline/POE)", "result": "Suspension"}, {"measurement": "Addition of Akoline", "setting": "[2]; PEG (40 μl), camitine (10 mg)", "result": "Clear solution"}, {"measurement": "Addition of Akoline", "setting": "[2]; [9]", "result": "Suspension"}, {"measurement": "Addition of Akoline", "setting": "[2]; [10]", "result": "Translucent"}, {"measurement": "Addition of Akoline", "setting": "[2]; [11]", "result": "Translucent"}, {"measurement": "Addition of Akoline", "setting": "[2]; [12]", "result": "Translucent"}]}]}
